Reference: the nanobody polyreactivity screen of Harvey et al. (2022)

test: yeast display, Sf9 membrane polyspecificity reagent, FACS + sequencing; frameworks hold sequencing errors
Procedure, shortened: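 Galactose-induced (36–48 hours) yeast carrying a synthetic nanobody display library were exposed to 10% biotinylated, detergent-solubilized Sf9 membrane reagent at 4 °C for 1 hour. FACS followed streptavidin microbead enrichment, using low and high (top ~1%) gates for expression (anti-HA) and reagent binding (streptavidin). Colony PCR, MiSeq 2 × 250 sequencing and CDR-length filtering followed. Labels for polyreactivity reflect the gate of origin.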

Row | Sequence | polyreactivity (PSR sort gate)
1 | QVQLVESGGGLVQAAGRLRLSSAASGIIFYSYAMGWYRQAPGTEREFVAAITNSDGSTYYADSVKGRFTISRDNAKNTVYLQMYSLKPEDTAVYMYYWGQGTQVTVSS | low polyreactivity
2 | QVQLVESGGGLVQAAGSLRLSCAASGFIFHYNAMGWYRKATGKERELDASITASASRTYYADSVKGRFTISLDNAKNTVYLQMNSLKPEDTAVYYCAKAIRITITRYRFGYWVQGTQVTVSS | high polyreactivity
3 | QVQLVESGGGLVQAAGSLRLSCAASGITFSWYAMGWYRQAPGNERALVASITQSGGSTYYADSVKGRFTISRDNAKNTVYLQMTCLKPEVTAVYYCSKRYLKPVYCYVRNYGSDYWGQGTQVTVSS | low polyreactivity
4 | QVQLVESGGGLVQAAGSLRLSCAASGQFFAYYAMGWYRQATGKEREFVAAISWTGGSTYYADSVKGRFTISRDYAKKTVYLLMNSLKPEDTGVYYCAAVSNHLRYVASRYSYYYWGQGTQVTVSS | high polyreactivity
5 | QVQLVESGGGLVQAAGSLRLSCAASGRTFKYNAMGWYRQAPGKERELVAAITRSGTTYYADSVKGRFTISRDNAKNTVYLQMNSLKPEDTAVYYCNARIVNYGSYYYWGQGTQVTVSS | high polyreactivity
6 | QVQLVESGGGLVQAAGSLRLSCAASGRTLGYYAMGWYRPAPGKERELVAAITRGGSTNYADSVKGRFTISRDNAKNTVYLQMNSLKPEDTAVYYCARRGGYFWLKGDYWGQGTQVTVSS | high polyreactivity
7 | QVQLVESGGGLVQAAGSLRLSCAASGSIFSANSMGWYRQAPGKERELVAAISGRGTRTYYADSVKGRFTISRDNAKYTVYLQMNSLKPEDTAVYYCNAARDRTSPEYDYWGQGTQVTVSS | high polyreactivity
8 | QVQLVESGGGLVQAAGSLRLSCAASGYTFGYYAMGWYRQAPGKERELVAAINWSGGSTYYADSVKGRFTISRDNEKNSVYLQMYSLKPEDTAVYYCAAQSRSPGYYYWGQGTQVTVSS | high polyreactivity
9 | QVQLVESGGGLVQAAGSLRLSCAAYGGIFYWYAMGWYRQAPGKVRELVAVITLSGGSTDYADSVKGRFTISRDNAKNTVSLQMNSLKPEDTAFYYCAAEAYSYYPGTYEDDYWGQGTQVTVSS | low polyreactivity
10 | QVQLVESGGGLVQAAGSLRLSSAASGRTFVGYSMGWYRQAPGKERELVAAIHWSVGITYYADSVKGRFTISRDNAKNTVYLQMNSLKPEDTAVYYCAADGYDEPDLLVYEPWREDEYWGQGTQVTVSA | low polyreactivity
11 | QVQLVESGGGLVQAAGSLSLICAASGIIFQRSAKGWYRQAPVKERELVATLTISGGSTYYADSVKGRFTISREYAKNTVYLQMNRLKPEDTAVYYCAAALYYPTVRRRFGSDYYWGQGTQVTVSS | low polyreactivity
12 | QVQLVESGGGLVQAGASIRLSCAASGSTFYTYDMGRYIQAPGKERELVAVITPRSGTTSYADSVKGRFTISRDYAKNTVYLQMNSLKPEDTAVYYCNVYIPYSYGEYDYWGQGTQVTVSS | high polyreactivity
13 | QVQLVESGGGLVQAGASLRLICAASGITFDWYGMGWYRHAPGKERELVATITGSGDSTNYADSVKGRFTISRDNAQNTVYLQMNSLKPEDTAVYYCAAPTSYDQFGYEYWGQGTIVTVSS | low polyreactivity
14 | QVQLVESGGGLVQAGASLRLSCAAAGITIGSNVMGWYRQAPRKERELVAAISQCGGRTYYADSVKGRFTISRDYAKNTVYLQMNSMKPEDTAVYYCAKRQRSFYGRPMCDYWGQGTQVTVSS | high polyreactivity
15 | QVQLVESGGGLVQAGASLRLSCAASGFILYYYAMGWYRQAPGKERELVAAISARGGSTYYADSVKGRFTISRDNAKNTVYLQMNSLKPVDTAVYYCKKAGGYTGYTRRYEYWGQGTQVTVSS | high polyreactivity
16 | QVQLVESGGGLVQAGASLRLSCAASGFTLADNTMGWYRQAPGKERELVAAITSGASTYYADSVKGRFTISRDNAKNTVYLQMKSLKPEDTAVYYCAALYYWRSGYDYWGQGTQVTVSS | low polyreactivity
17 | QVQLVESGGGLVQAGASLRLSCAASGGTIAPYAMGWYRQAPGNVRELVAAITSAGTRTYYADSVKGRFTISRENAKNTVYLQMNRLKPEDTAVYYCAAGGGHSMYYWGKGTQVTVSS | high polyreactivity
